From patent US7919580B2, “Polysaccharide-protein binding model and nano-fibril formation of a starch binding domain” (priority 2008, dated 2011)

Assays:
RoGACBM21 = target: T1, RoGACBM21 (Rhizopus oryzae, UniProt P07683); conditions: reported binding assay results; read-out: Kd (binding affinity) of soluble ligand with RoGACBM21; cited from earlier work
T1 construct: the recombinant SBD of 108 amino acid residues; 6xHis (C); made in house; host or cells: E. coli BL21-Gold (DE3), pET23a(+)

[1] = Starch binding isotherm (saturation binding assay); conditions: insoluble starch, 50 mM sodium acetate pH 5.5, 25° C., 16 h
Procedure: The starch binding isotherm was analyzed as a saturation binding assay as reported. Wild-type and mutant RoGACBM21 derivatives (100 μL, in 50 mM sodium acetate, pH 5.5) were mixed with 0.1 mg of prewashed insoluble starch and incubated at 25° C. with gentle stirring for 16 h. After centrifugation at 16,000×g for 10 min at 4° C., the protein concentration of the supernatant (unbound protein) was determined by BCA assay, and the amount of bound protein was calculated from the difference between the initial and unbound protein concentrations. The Kd and Bmax values were determined by fitting to the non-linear regression of the binding isotherms using a standard single-site binding model.

[2] = Fluorescence spectrophotometry of binding to βCD; conditions: intrinsic protein fluorescence, 50 mM sodium acetate pH 5.5, 25° C.; read-out: β-cyclodextrin Kd
Procedure: Fluorescence spectrophotometry of the binding of wild-type or mutant RoGACBM21 to βCD was recorded by measuring changes in the intrinsic protein fluorescence intensity. Experiments were performed in 50 mM sodium acetate, pH 5.5, at 25° C. using a PerkinElmer LS-55 spectrophotometer. Circular and linear carbohydrates (2 to 20 mM) were titrated into RoGACBM21 (1 μM, 2 mL), and the fluorescence-emission spectrum was monitored at 350 nm with a fixed excitation at 280 nm. The relative changes in fluorescence intensity were plotted against ligand concentration, and the data were fitted to a simulated curve using the appropriate equation for a single binding site.

[3] = Circular dichroism spectroscopy and thermal unfolding; assay type: physicochemical; conditions: far-UV CD at 215 nm; for β-sheet signals upon heating: ascending temperature
Procedure: (A) CD spectra were collected from 200 to 260 nm at 25° C. at a concentration of 50 μM in 10 mM sodium acetate buffer (pH 4.5). (B) Thermal unfolding of SBD was measured by monitoring changes in the far-UV CD spectra at 215 nm. (C) CD spectra of SBD were recorded between 200 and 260 nm at various temperatures
CD spectra and thermostabilities were recorded in a 0.1-cm cuvette using an Aviv model 202 CD Spectrometer. Data collection and calculation were carried out as previously described.

[4] = Sedimentation velocity ultracentrifugation; assay type: physicochemical
Procedure: The sedimentation velocity studies were performed at 50,000 rpm for 30 μM (solid line) and 60 μM (dotted line) SBD, and absorbance scans were recorded at 280 nm.

[5] = Thioflavin T fluorescence (ThT) assay for fibril formation; assay type: physicochemical; conditions: SBD sample heated at 97° C.
Procedure: Purified SBDs or synthetic peptides were dissolved in 10 mM sodium-citrate or phosphate-citrate buffer to a final concentration of 100 μM (at indicated pH). […] The measurements were recorded in a Perkin Elmer LS-55 spectrofluorometer at 25° C.
The relative fluorescence, peaked at 482 nm, subtracted from the background of buffer from the total fluorescence were measured as the amount of fibrillar aggregates with the excitation wavelength (slit width=4 nm) set at 450 nm and monitoring emission wavelength (slit width=8 nm) set at from 470 to 630 nm.

[6] = starch; fold higher than AnGACBM20; cited from earlier work

## OC[C@H]1O[C@@H]2O[C@H]3[C@H](O)[C@@H](O)[C@@H](O[C@H]4[C@H](O)[C@@H](O)[C@@H](O[C@H]5[C@H](O)[C@@H](O)[C@@H](O[C@H]6[C@H](O)[C@@H](O)[C@@H](O[C@H]7[C@H](O)[C@@H](O)[C@@H](O[C@H]8[C@H](O)[C@@H](O)[C@@H](O[C@H]1[C@H](O)[C@H]2O)O[C@@H]8CO)O[C@@H]7CO)O[C@@H]6CO)O[C@@H]5CO)O[C@@H]4CO)O[C@@H]3CO [βCD, β-cyclodextrin]
RoGACBM21
  Kd: ~5 µM

## maltoheptaose [G7]
RoGACBM21
  Kd: ~5 µM

B1: WT: recombinant starch-binding domain (family 21 carbohydrate binding module) of Rhizopus oryzae glucoamylase, 108 amino acid residues (protein, listed as Rhizopus oryzae)
chain: ASIPSSASVQLDSYNYDGSTFSGKIYVKNIAYSKKVTVVYADGSDNWNNNGNIIAASFSGPISGSNYEYWTFSASVKGIKEFYIKYEVSGKTYYDNNNSANYQVSTSK
modifications: DOMAIN (1)..(108)
[1]
  Kd: 1400 ± 100 nM
  Starch Bmax: 41.1 ± 1.1 µmol/g
[2]
  Kd: 5.1 ± 0.7 µM
[3]
  apparent temperature for unfolding: approximately 65 °C
[4]; 30 μM, 50,000 rpm
  s20 (sedimentation coefficient): 1.3 S
[4]; high concentration (60 μM)
  oligomeric state in solution: oligomeric forms of SBD appeared
[4]; low concentration (30 μM)
  oligomeric state in solution: mainly as a single monomeric species
[5]
  increase in ThT fluorescence emission intensity at 482 nm: 9 fold
[6]
  maximal amount of bound protein (Bmax) relative to AnGACBM20: 40-70 fold

B2: SBD (K108R): SBD mutant K108R (protein)
chain: ASIPSSASVQLDSYNYDGSTFSGKIYVKNIAYSKKVTVVYADGSDNWNNNGNIIAASFSGPISGSNYEYWTFSASVKGIKEFYIKYEVSGKTYYDNNNSANYQVSTSR
modifications: Modified SBD.
[3]
  β-sheet signals upon heating: still showed strong β-sheet signals upon heating

B3: SBD (K108H): SBD mutant K108H (protein)
chain: ASIPSSASVQLDSYNYDGSTFSGKIYVKNIAYSKKVTVVYADGSDNWNNNGNIIAASFSGPISGSNYEYWTFSASVKGIKEFYIKYEVSGKTYYDNNNSANYQVSTSH
modifications: Modified SBD.
[3]
  β-sheet signals upon heating: still showed strong β-sheet signals upon heating

B4: SBD (K108D): SBD mutant K108D (protein)
chain: ASIPSSASVQLDSYNYDGSTFSGKIYVKNIAYSKKVTVVYADGSDNWNNNGNIIAASFSGPISGSNYEYWTFSASVKGIKEFYIKYEVSGKTYYDNNNSANYQVSTSD
modifications: Modified SBD.
[3]
  β-sheet signals upon heating: diminished the β-sheet signals upon heating
